Kd data for six molecules are collected here from patent US20210253727A1 (CORVUS PHARMACEUTICALS, published 2021).

This test concerns the target T1, CD73 (as used in the affinity measurements) (UniProt P21589 27-549, limits assumed).
T1 construct: also called CD73 antigen; 5'-nucleotidase
T1 sequence (looked up): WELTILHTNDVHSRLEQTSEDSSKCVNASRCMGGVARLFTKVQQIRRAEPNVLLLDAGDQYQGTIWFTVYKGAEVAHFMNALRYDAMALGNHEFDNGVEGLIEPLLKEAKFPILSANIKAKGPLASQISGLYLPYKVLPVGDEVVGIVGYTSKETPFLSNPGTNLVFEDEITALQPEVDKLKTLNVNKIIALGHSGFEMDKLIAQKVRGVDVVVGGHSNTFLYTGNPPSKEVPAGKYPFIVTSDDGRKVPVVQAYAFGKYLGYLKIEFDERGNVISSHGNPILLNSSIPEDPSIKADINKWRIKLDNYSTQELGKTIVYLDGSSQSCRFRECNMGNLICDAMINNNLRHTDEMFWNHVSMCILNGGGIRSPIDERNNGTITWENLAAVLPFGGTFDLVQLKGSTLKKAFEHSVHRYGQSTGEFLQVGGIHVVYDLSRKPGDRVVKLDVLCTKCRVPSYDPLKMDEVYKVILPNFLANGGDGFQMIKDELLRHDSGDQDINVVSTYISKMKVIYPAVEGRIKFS
Kind of test: affinity measurement, method not stated.

B1: CPX-003 (humanized 1E9 antibody, BAP094-hum03) (antibody, human IgG1, V domains shown)
VH: QVQLVQSGAEVKKPGASVKVSCKASGYTFTSYWITWVRQARGQRLEWIGDIYPGSGNTNYNEKFKTRVTITADKSTSTAYMELSSLRSEDTAVYYCAKEGGLTTEDYALDYWGQGTLVTVSS
VL: EIVLTQSPDFQSVTPKEKVTITCRASKNVSTSGYSYMHWYQQKPGKAPKLLIYLASNLESGIPPRFSGSGYGTDFTLTINNIESEDAAYYFCQHSRELPFTFGQGTKVEI
As a reminder, the Kd is a measure of binding affinity in units of concentration. Low values mean tighter binding, high ones weaker binding. In the case of B1, binding was put at a Kd of 19.5 nM. In other words, the double-digit nanomolar range.

B2: CPX-005 (humanized 1E9 antibody, BAP094-hum06) (antibody, human IgG1, V domains shown)
VH: QVQLVQSGAEVEKPGASVKVSCKASGYTFTSYWITWVRQAPGQGLEWMGDIYPGSGNTNYNEKFKTRVTITADKSTSTAYMELSSLRSEDTAVYYCAKEGGLTTEDYALDYWGQGTLVTVSS
VL: AIQLTQSPSSLSASVGDRVTITCRASKNVSTSGYSYMHWYQQKPGQAPRLLIYLASNLESGVPSRFSGSGSGTDFTFTISSLEAEDAATYYCQHSRELPFTFGQGTKVEIK
Regarding B2, the Kd was 6.9 nM.

B3: CPX-006 (humanized 1E9 antibody; BAP094-hum06-HC with BAP094-hum07-LC) (antibody, V domains shown)
VH: QVQLVQSGAEVEKPGASVKVSCKASGYTFTSYWITWVRQAPGQGLEWMGDIYPGSGNTNYNEKFKTRVTITADKSTSTAYMELSSLRSEDTAVYYCAKEGGLTTEDYALDYWGQGTLVTVSS
VL: EIVLTQSPATLSLSPGERATLSCRASKNVSTSGYSYMHWYQQKPGQAPRLLIYLASNLESGIPPRFSGSGYGTDFTLTINNIESEDAAYYFCQHSRELPFTFGQGTKVEIK
notes: also called anti-CD73 (CPX-006)
In turn, B3 came in with a Kd of 7.1 nM.

B4: CPX-007 (humanized 1E9 antibody; BAP094-hum03-HC with BAP094-hum07-LC) (antibody, human IgG1, V domains shown)
VH: QVQLVQSGAEVKKPGASVKVSCKASGYTFTSYWITWVRQARGQRLEWIGDIYPGSGNTNYNEKFKTRVTITADKSTSTAYMELSSLRSEDTAVYYCAKEGGLTTEDYALDYWGQGTLVTVSS
VL: EIVLTQSPATLSLSPGERATLSCRASKNVSTSGYSYMHWYQQKPGQAPRLLIYLASNLESGIPPRFSGSGYGTDFTLTINNIESEDAAYYFCQHSRELPFTFGQGTKVEIK
Turning to B4, the dissociation constant Kd turned out to be 15.9 nM.

B5: CPX-004 (humanized 1E9 antibody, BAP094-hum05) (antibody, human IgG1, V domains shown)
VH: EVQLVQSGAEVKKPGATVKISCKVSGYTFTSYWITWIRQPPGKGLEWIGDIYPGSGNTNYNEKFKTRVTISADKSISTAYLQWSSLKASDTAMYYCAKEGGLTTEDYALDYWGQGTLVTVSS
VL: DVVMTQSPLSLPVTLGQPASISCRASKNVSTSGYSYMHWYQQKPGQAPRLLIYLASNLESGIPPRFSGSGYGTDFTLTINNIESEDAAYYFCQHSRELPFTFGQGTKVEIK
Take B5: the affinity, expressed as Kd, was 17.8 nM.

B6: CPX-002 (chimeric 1E9 antibody, clone BAP094-01) (antibody, human IgG1, V domains shown)
VH: QVQLQQPGAELVKPGASVKMSCKASGYTFTSYWITWVKQRPGQGLEWIGDIYPGSGNTNYNEKFKTKATLTVDTSSSTAYMQLSSLTSEDSAVYYCAKEGGLTTEDYALDYWGQGTLVTVSS
VL: DIVLTQSPASLAVSLGQRATISCRASKNVSTSGYSYMHWYQQKPGQPPKLLIYLASNLESGVPTRFSGSGSGTDFTLNIHPVEEEDAATYYCQHSRELPFTFGSGTKLEIK
notes: also called chimeric antibody
With B6, the dissociation constant Kd worked out at 9.4 nM. Compared with the last molecule, the Kd is about 1.9-fold lower.
